How the values were obtained:
[1] = biological target: T1, EBOV glycoprotein lacking the transmembrane domain (Kikwit) (Zaire ebolavirus, Kikwit-95, UniProt P87666); assay: cell-based or functional assay
[2] = biological target: T1, EBOV glycoprotein lacking the …; assay: ELISA; conditions: both partners purified

T1 sequence (P87666 33-650): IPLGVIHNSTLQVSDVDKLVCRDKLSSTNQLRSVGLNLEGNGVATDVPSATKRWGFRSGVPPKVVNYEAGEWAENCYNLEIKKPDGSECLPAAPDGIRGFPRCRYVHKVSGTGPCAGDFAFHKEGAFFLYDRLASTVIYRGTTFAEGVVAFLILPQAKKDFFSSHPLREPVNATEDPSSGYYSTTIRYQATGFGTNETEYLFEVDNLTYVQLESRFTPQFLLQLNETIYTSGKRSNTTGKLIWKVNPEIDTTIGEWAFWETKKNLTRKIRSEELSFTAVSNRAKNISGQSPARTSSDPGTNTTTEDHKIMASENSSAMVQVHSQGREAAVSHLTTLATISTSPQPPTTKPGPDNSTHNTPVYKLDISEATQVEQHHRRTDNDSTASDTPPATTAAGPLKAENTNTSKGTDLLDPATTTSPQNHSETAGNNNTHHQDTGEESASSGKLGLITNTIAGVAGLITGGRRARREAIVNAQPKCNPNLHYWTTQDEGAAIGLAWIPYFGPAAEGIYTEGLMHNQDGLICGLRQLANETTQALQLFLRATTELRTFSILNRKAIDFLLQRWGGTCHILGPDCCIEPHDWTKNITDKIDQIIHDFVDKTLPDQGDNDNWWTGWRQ

B1: KZ52 (human EBOV mAb, monospecific IgG1) (antibody, V domains shown)
VH: EVQLLESGGGLVKPGGSLRLSCAASGFTLINYRMNWVRQAPGKGLEWVSSISSSSSYIHYADSVKGRFTISRDNAENSLYLQMNSLRAEDTAVYYCVREGPRATGYSMADVFDIWGQGTMVTVSS
VL: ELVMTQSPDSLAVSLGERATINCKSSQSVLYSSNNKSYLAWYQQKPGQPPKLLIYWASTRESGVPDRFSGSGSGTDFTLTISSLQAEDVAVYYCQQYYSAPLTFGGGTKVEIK
notes: also called KZ52 IgG1; monospecific KZ52
IC50 of neutralisation of VSV-GP_(EBOV), infection of Vero cells (eGFP) [1]: 2.7 nM | EC50 [2]: 0.01 nM

Source: publication PMC4725817 (Scientific Reports, 2016)
